Substitutions are numbered along the chain they refer to. Numbers in names are those of the source.
Assays:
[1] = target: T1, hTfR1 (recombinant, construct not specified) (human, UniProt P02786 89-760, limits assumed); assay: SPR (Biacore 8K), single-cycle kinetics, hTfR1 captured through its N-terminal DYKDDDDK tag, scFv injected in 5 steps (3-fold, from 700 or 400 nM)
T1 construct: also called biotinylated hTfR1
Description: Binding to hTfR1 of six different purified scFv variants from Example 24 was evaluated by surface plasmon resonance (SPR) using Biacore 8K (Cytiva). 30 μg/ml of […] Tag mAb FG4R (Thermo Fisher Scientific, MA1-91878) in 10 mM acetate buffer, pH 4.5 was immobilized on a CM5 sensor chip (Cytiva, #BR100399) using the amine coupling kit type 2 (Cytiva, #BR100633) according to the manufacturer's instruction, resulting in immobilization levels of approximately 10000 RU. hTfR1 was captured via an N-terminal […] tag. To this end, the receptor was injected over the chip with a contact time of 60 s at a flow rate of 10 μl/min. […] Interaction was measured using the single cycle kinetics method with a contact time of 120 s at a flow rate of 30 μl/min followed by a dissociation time of 600 s. Regeneration of the surface between cycles was done by injecting 10 mM glycine-HCl pH 1.7 with a contact time of 30 s and a flow rate of 30 μl/min. The binding modules were diluted in HBS-EP+ (Cytiva, #BR100669). Experiments were performed at 25° C.

AβpE3-40 monomer = target: T2, AβpE3-40 monomer (UniProt P05067 674-711, pyroglutamate at position 3 (N-terminal residue)); assay: SPR, antibody immobilised, monomer injected, 1:1 fit
T2 construct: range 3-40 (Aβ numbering); Synthetic peptide (Bachem/Anaspec), verified monomeric by SEC; also called monomeric AβpE3-40
T2 sequence (P05067 674-711): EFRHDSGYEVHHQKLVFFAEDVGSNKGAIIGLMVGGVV

[2] = target: T3, truncated hTfR1 of SEQ ID NO:122 (human, UniProt P02786 122-760); assay: SPR, FLAG-captured TfR1, bispecific injected, 1:1 fit
T3 construct: also called human TfR1; Human TfR1
Description: (§1) Binding of the purified bispecific binding molecules produced in Example 47 to human and cynomolgus TfR1 was evaluated using SPR on a Biacore 8K instrument (Cytiva). […] The interaction was measured using the single cycle kinetics method with a contact time of 120 s at a flow rate of 30 μl/min followed by a dissociation time of 600 s. Regeneration of the surface between cycles was done by injecting 10 mM glycine-HCl, pH 1.7. The binding data was fitted to a 1:1 interaction model. The tested molecules were diluted in HBS-EP+ (Cytiva, #BR100669). Experiments were performed at 25° C.

[3] = target: T4, truncated cTfR1 of SEQ ID NO:123 (cynomolgus monkey, UniProt Q5RDH6 122-760 (Pongo abelii entry)); assay: as above
T4 construct: also called cynomolgus TfR1
T4 chain: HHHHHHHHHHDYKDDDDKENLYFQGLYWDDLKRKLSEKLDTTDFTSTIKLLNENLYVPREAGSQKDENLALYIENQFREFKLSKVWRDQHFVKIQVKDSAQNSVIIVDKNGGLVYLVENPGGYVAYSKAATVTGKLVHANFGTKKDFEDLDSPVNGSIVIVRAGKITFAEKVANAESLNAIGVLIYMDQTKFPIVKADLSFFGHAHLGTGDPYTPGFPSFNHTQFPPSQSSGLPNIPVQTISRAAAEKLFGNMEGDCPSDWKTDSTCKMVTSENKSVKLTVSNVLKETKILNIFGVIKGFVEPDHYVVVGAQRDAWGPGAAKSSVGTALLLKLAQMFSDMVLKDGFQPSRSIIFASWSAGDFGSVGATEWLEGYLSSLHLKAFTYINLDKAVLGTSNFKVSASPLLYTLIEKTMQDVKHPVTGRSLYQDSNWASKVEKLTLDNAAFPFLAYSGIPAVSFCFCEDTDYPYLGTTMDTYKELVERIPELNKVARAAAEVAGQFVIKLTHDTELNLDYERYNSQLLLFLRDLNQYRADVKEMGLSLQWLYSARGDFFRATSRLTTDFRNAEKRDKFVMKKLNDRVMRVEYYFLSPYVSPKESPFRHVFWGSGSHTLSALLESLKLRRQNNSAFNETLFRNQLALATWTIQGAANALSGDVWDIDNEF
Description: as §1

[4] = target: T5, ectodomain of human TfR1 (His10-hTfR1; SEQ ID NO:110) (human, UniProt P02786 89-760); assay: BLI: His-tagged Fab loaded from cell supernatant on anti-Fab sensors, hTfR1 ectodomain at 3.75 µg/ml in solution, 300 s association, 300 s dissociation
T5 construct: also called ectodomain of hTfR1
T5 sequence (P02786 other isoform, or with tags, fused parts or gaps): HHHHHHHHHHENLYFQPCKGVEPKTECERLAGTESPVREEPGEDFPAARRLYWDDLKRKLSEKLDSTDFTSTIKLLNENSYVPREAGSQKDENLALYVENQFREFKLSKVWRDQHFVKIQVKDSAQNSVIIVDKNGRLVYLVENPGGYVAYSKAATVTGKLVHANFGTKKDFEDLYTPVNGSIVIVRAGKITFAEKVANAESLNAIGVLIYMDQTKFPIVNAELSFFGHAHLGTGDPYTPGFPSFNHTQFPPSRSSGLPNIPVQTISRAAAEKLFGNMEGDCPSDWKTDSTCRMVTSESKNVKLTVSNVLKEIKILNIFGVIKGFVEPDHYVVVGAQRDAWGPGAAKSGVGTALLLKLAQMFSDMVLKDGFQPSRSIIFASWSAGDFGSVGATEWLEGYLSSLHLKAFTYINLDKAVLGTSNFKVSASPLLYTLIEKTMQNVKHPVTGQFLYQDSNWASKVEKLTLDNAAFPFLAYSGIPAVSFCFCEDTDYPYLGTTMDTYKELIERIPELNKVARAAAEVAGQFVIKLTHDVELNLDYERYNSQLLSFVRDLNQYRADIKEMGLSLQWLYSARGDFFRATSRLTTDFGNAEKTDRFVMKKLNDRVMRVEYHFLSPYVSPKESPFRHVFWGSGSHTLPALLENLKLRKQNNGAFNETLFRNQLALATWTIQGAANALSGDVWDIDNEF
Description: The generated alanine variants were expressed as single mutant, His-tagged Fabs by transient transfection of Chinese hamster ovary cells (ExpiCHO; Thermo Fisher Scientific) according to the manufacturer's instructions. Clarified media, into which the Fabs had been secreted, was used to assess binding to hTfR1 by BLI (Octet RED384, ForteBio). The expressed Fabs were loaded from the cell supernatants onto anti-Fab biosensors during 240 s. Thereafter, association of ectodomain of hTfR1 (SEQ ID NO:110), diluted to 3.75 μg/ml in 1× Kinetics buffer (ForteBio), to the loaded sensors was measured for 300 s, followed by dissociation for 300 s.

T1 sequence (P02786 89-760 limits assumed): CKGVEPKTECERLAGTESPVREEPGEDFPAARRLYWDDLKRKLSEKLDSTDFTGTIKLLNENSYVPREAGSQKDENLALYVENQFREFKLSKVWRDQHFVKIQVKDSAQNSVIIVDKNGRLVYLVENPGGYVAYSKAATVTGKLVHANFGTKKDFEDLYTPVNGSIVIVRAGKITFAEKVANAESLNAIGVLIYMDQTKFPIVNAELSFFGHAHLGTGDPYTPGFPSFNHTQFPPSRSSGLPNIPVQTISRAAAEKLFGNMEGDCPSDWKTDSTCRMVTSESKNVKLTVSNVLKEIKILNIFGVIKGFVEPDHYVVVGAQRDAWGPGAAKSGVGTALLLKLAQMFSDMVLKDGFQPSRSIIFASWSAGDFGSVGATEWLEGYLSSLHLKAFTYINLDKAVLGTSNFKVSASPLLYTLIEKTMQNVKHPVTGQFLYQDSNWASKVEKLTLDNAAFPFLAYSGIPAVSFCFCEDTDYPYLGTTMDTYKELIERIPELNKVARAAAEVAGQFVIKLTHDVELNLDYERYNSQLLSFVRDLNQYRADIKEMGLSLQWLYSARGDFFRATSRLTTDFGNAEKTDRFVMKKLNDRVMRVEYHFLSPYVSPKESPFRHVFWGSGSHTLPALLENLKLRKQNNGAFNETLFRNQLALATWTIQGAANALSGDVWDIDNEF

B1: h26D3-HC6, VL-first (scFv)
scFv: DIQMTQSPSSVSASVGDRVTITCKSSQSLLYSTNQKNYLAWYQQKPGKAPKLLIYWASTRESGVPSRFSGSGSGTDFTLTISSLQPEDFATYYCQQYFIYPRTFGQGTKVEIKGGGGSGGGGSGGGGSEVQLVQSGAEVKKPGSSVKVSCKASGYIFTDYNMDWVRQAPGQGLEWIGDINPDADTTSYNEKFKGRATLTVDKSTSTAYMELSSLRSEDTAVYYCARGGYSGSSYYHPMDYWGQGTLVTVSS
binding result [1]: binds

B2: h26D3-HC6 (scFv)
scFv: EVQLVQSGAEVKKPGSSVKVSCKASGYIFTDYNMDWVRQAPGQGLEWIGDINPDADTTSYNEKFKGRATLTVDKSTSTAYMELSSLRSEDTAVYYCARGGYSGSSYYHPMDYWGQGTLVTVSSGGGGSGGGGSGGGGSDIQMTQSPSSVSASVGDRVTITCKSSQSLLYSTNQKNYLAWYQQKPGKAPKLLIYWASTRESGVPSRFSGSGSGTDFTLTISSLQPEDFATYYCQQYFIYPRTFGQGTKVEIK
notes: also called scFv h26D3-HC6
binding result [1]: binds

B3: h26D3-LC1 (scFv)
scFv: B2 scFv with A55Y, Y169A
binding result [1]: binds

B4: h26D3-HC6_DS (scFv)
scFv: B2 scFv with G44C, Q244C
binding result [1]: binds

B5: BA007 (bispecific antibody, human IgG1, kappa)
light: EIVLTQSPLSLSVTLGQSASISCRSSQSLLDSNGKTYLHWFILRPGQSPRRLIYLVSILDSGVPDRFSGSGSGTDFTLKISRVEAEDVGVYYCVQGTHFPFTFGSGTKLEIKRTVAAPSVFIFPPSDEQLKSGTASVVCLLNNFYPREAKVQWKVDNALQSGNSQESVTEQDSKDSTYSLSSTLTLSKADYEKHKVYACEVTHQGLSSPVTKSFNRGEC
heavy 1: not shown
heavy 2: EVQLVQSGAEVVKPGASVRLSCKASGYSFTGFTMNWVRQALGQGLEWMGLINPYNGVTTYNQKFKGRLTMTRDMSTRTVYMDLSSLTYEDTAVYYCTREGNWEGVYWGQGTLVTVSSASTKGPSVFPLAPSSKSTSGGTAALGCLVKDYFPEPVTVSWNSGALTSGVHTFPAVLQSSGLYSLSSVVTVPSSSLGTQTYICNVNHKPSNTKVDKKVEPKSCDKTHTCPPCPAPELLGGPSVFLFPPKPKDTLMISRTPEVTCVVVDVSHEDPEVKFNWYVDGVEVHNAKTKPREEQYNSTYRVVSVLTVLHQDWLNGKEYKCAVSNKALPAPIEKTISKAKGQPREPQVYTLPPCRDELTKNQVSLWCLVKGFYPSDIAVEWESNGQPENNYKTTPPVLDSDGSFFLYSKLTVDKSRWQQGNVFSCSVMHEALHNHYTQKSLSLSPGGGGGSGGGGSGGGGSGGGGSDIQMTQSPSSVSASVGDRVTITCKSSQSLLYSTNQKNYLAWYQQKPGKAPKLLIYWASTRESGVPSRFSGSGSGTDFTLTISSLQPEDFATYYCQQYFIYPRTFGCGTKVEIKGGGGSGGGGSGGGGSGGGGSEVQLVQSGAEVKKPGSSVKVSCKASGYIFTDYNMDWVRQAPGQCLEWIGDINPDADTTSYNEKFKGRATLTVDKSTSTAYMELSSLRSEDSAVYYCARGGYSGSSYYHPMDYWGQGTLVTVKS
Kd (AβpE3-40 monomer): 2.1 nM | koff (AβpE3-40 monomer): 0.00012 s⁻¹ | kon (AβpE3-40 monomer): 54000 M⁻¹ s⁻¹ | Kd [2]: 186 nM | koff [2]: 0.004 s⁻¹ | kon [2]: 22000 M⁻¹ s⁻¹ | Kd [3]: 565 nM | koff [3]: 0.011 s⁻¹ | kon [3]: 19000 M⁻¹ s⁻¹

B6: BA006 (bispecific antibody, human IgG1, kappa)
light: B5 light
heavy 1: not shown
heavy 2: B5 heavy 2 with S690T
Kd (AβpE3-40 monomer): 2.3 nM | koff (AβpE3-40 monomer): 0.00012 s⁻¹ | kon (AβpE3-40 monomer): 52000 M⁻¹ s⁻¹ | Kd [2]: 189 nM | koff [2]: 0.0041 s⁻¹ | kon [2]: 22000 M⁻¹ s⁻¹ | Kd [3]: 552 nM | koff [3]: 0.011 s⁻¹ | kon [3]: 20000 M⁻¹ s⁻¹

B7: h26D3 variant HC1 Fab (Fab, V domains shown)
VH: EVQLVQSGAEVKKPGSSVKVSCKASGYIFTAYNMDWVRQAPGQGLEWIGDINPDYDTTSYNEKFKGRATLTVDKSTSTAYMELSSLRSEDTAVYYCARGGYSGSSYYHPMDYWGQGTLVTVSS
VL: DIQMTQSPSSVSASVGDRVTITCKSSQSLLYSTNQKNYLAWYQQKPGKAPKLLIYWASTRESGVPSRFSGSGSGTDFTLTISSLQPEDFATYYCQQYFIYPRTFGQGTKVEIK
notes: Single-mutant His-tagged Fab; also called D31A
binding result [4]: binds

B8: h26D3 variant HC7 Fab (Fab, V domains shown)
VH: B7 VH with A31D, D56A
VL: B7 VL
notes: Single-mutant His-tagged Fab; also called D56A
binding result [4]: binds

B9: h26D3 variant LC2 Fab (Fab, V domains shown)
VH: B7 VH with A31D
VL: B7 VL with Y38A
notes: Single-mutant His-tagged Fab; also called Y38A
binding result [4]: binds

B10: h26D3 variant HC9 Fab (Fab, V domains shown)
VH: B7 VH with A31D, Y101A
VL: B7 VL
notes: Single-mutant His-tagged Fab; also called Y101A
binding result [4]: binds

B11: h26D3 variant LC3 Fab (Fab, V domains shown)
VH: B7 VH with A31D
VL: B7 VL with Y55A
notes: Single-mutant His-tagged Fab; also called Y55A
binding result [4]: binds

B12: h26D3 variant HC13 Fab (Fab, V domains shown)
VH: B7 VH with A31D, Y112A
VL: B7 VL
notes: Single-mutant His-tagged Fab; also called Y112A
binding result [4]: binds

B13: h26D3 variant HC12 Fab (Fab, V domains shown)
VH: B7 VH with A31D, D111A
VL: B7 VL
notes: Single-mutant His-tagged Fab; also called D111A
binding result [4]: binds

B14: h26D3 variant LC4 Fab (Fab, V domains shown)
VH: B7 VH with A31D
VL: B7 VL with W56A
notes: Single-mutant His-tagged Fab; also called W56A
binding result [4]: binds

B15: h26D3-LC1_DS, VL-first (scFv)
scFv: DIQMTQSPSSVSASVGDRVTITCKSSQSLLASTNQKNYLAWYQQKPGKAPKLLIYWASTRESGVPSRFSGSGSGTDFTLTISSLQPEDFATYYCQQYFIYPRTFGCGTKVEIKGGGGSGGGGSGGGGSGGGGSEVQLVQSGAEVKKPGSSVKVSCKASGYIFTDYNMDWVRQAPGQCLEWIGDINPDYDTTSYNEKFKGRATLTVDKSTSTAYMELSSLRSEDTAVYYCARGGYSGSSYYHPMDYWGQGTLVTVSS
binding result [1]: binds

— patent publication US20250388664A1 (BIOARCTIC, published 2025)
